Measured values as given in paper PMC8762078 (The Journal of Biological Chemistry, 2021).

B1: p62 WT-AIM peptide (peptide)
peptide: SGGDDDWTHLSS
notes: also called p62 AIM; source: synthetic peptide; bought: Genosphere Biotechnologies and Peptide Synthetics
B2: LC3C (microtubule-associated protein 1A/1B light chain 3C) (natural protein, human, UniProt Q9BXW4 1-126, looked up)
chain: MPPPQKIPSVRPFKQRKSLAIRQEEVAGIRAKFPNKIPVVVERYPRETFLPPLDKTKFLVPQELTMTQFLSIIRSRMVLRATEAFYLLVNNKSLVSMSATMAEIYRDYKDEDGFVYMTYASQETFG

Experiments:
Settings in all cases: both partners purified
[1] = target: LC3A (microtubule-associated protein 1A/1B light chain 3A) (human, UniProt Q9H492 1-121); experiment: ITC; MicroCal VP-ITC, 30 °C; protein 10 μM in the cell, 10 μl injections of peptide (100-150 μM); 25 mM potassium phosphate, 150 mM NaCl, pH 7.0; no reducing agent; one site binding model; two independent measurements
[2] = target: LC3B (microtubule-associated protein 1A/1B light chain 3B) (human, UniProt Q9GZQ8 1-120); experiment: as above
[3] = target: B2; experiment: as above
GABARAPL1 = GABARAPL1 (human, UniProt Q9H0R8 1-117); experiment: as above
Chain of GABARAPL1 (Q9H0R8 whole entry): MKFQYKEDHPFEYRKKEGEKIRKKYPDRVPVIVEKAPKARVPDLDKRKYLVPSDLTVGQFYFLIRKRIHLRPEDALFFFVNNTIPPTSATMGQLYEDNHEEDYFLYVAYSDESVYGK

GABARAPL2 = target: T1, GABARAPL2 (human, UniProt P60520 1-117); experiment: as above
T1 construct: GABARAPL2, human ATG8 protein of the GABARAP subfamily; 15N-labelled (13C,15N for assignment) in M9 minimal medium for the NMR experiments; Cloned into pGEX-4T-1 between BamHI and XhoI; thrombin cleavage may leave a few vector residues at the N-terminus (surmised); also called hATG8; source: E. coli BL21 (DE3), purified (Glutathione Sepharose, thrombin cleavage, ion exchange, gel filtration); not …
T1 sequence (P60520 whole entry): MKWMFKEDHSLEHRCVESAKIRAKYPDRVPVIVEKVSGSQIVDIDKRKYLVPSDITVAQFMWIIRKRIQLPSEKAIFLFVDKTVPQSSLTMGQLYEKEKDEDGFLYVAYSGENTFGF

p62 WT-AIM peptide = target: B1; experiment: native MS; ESI-MS competition binding under nondenaturing conditions: each hATG8 titrated into an equimolar mixture of WT-AIM and L341V-AIM peptides (each 10 μM); read-out is the ratio of peak intensities of unbound WT and L341V peptides; ratios given for 20 μM hATG8; two independent experiments

| Binder | Kd [1] [µM] | dH [1] [kcal/mol] | stoichiometry N [1] | Kd [2] [µM] | dH [2] [kcal/mol] | Kd [3] [µM] | dH [3] [kcal/mol] | stoichiometry N [3] | Kd (GABARAPL1) [µM] | dH (GABARAPL1) [kcal/mol] | stoichiometry N (GABARAPL1) | dH (GABARAPL2) [kcal/mol] | stoichiometry N (GABARAPL2) | Kd (GABARAPL2) [µM] | ratio of unbound WT:L341V AIM peptides at 20 μM hATG8 (reference: L341V-AIM) (p62 WT-AIM peptide) |
| --- | --- | --- | --- | --- | --- | --- | --- | --- | --- | --- | --- | --- | --- | --- | --- |
| B1 | 4.55 | -17.9 | 1.05 | 3.83 | -10.7 | 16.8 | -3.59 | 0.82 | 3.23 | -5.61 | 0.86 | -2.43 | 1.07 | – | – |
| SGGDDDWTHVSS (also called L341V-mutant peptide; mutant AIM; source: synthetic peptide; bought: Genosphere Biotechnologies and Peptide Synthetics) [p62 L341V-AIM peptide] | – | -6.3 | – | 8.47 | – | – | -5.38 | 0.9 | 5.78 | -5.37 | 0.98 | -4 | 1.03 | 6.99 | – |
| B2 | – | – | – | – | – | – | – | – | – | – | – | – | – | – | > 0.95 |
